Data on one substance can be found in PMC7644594.

This assay concerns the target EPHA2 tagged with a fluorescent protein for FRET (EPHA2-mClover3, EPHA2-mRuby3) (human) (UniProt P29317). The experiment in a line: FRET or BRET. Background: In BRET a luciferase serves as donor, and the signal depends on an acceptor being close.

“EPHA2 tagged with a fluorescent protein for FRET (EPHA2-mClover3, EPHA2-mRuby3) (from UniProt P29317 24-976) (receptor)”: the N-FRET worked out at 0.347.
